Consider 1 molecule from article PMC6294517.

The target in this series is T1, SSBP1 (single-stranded DNA-binding protein 1, mitochondrial) (UniProt Q04837 17-148).
T1 sequence: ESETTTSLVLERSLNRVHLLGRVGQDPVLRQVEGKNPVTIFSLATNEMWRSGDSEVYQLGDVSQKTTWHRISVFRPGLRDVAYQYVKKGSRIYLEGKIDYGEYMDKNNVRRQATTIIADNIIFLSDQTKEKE
In words: fluorescence anisotropy. In general terms: Polarisation of emitted light reports the rotation of a fluorescent probe.

B1: 5x 6mA fluorescent probe (PG491/PG493) (dsDNA)
DNA 1: TATTTAACCTAAATTTCTATAAGATTATTAGTATAAAAGGG
DNA 2: CCCTTTTATACTAATAATCTTATAGAAATTTAGGTTAAATA
modifications: N6-methyldeoxyadenosine at strand 1 positions 19, 24, 27, 30, 33
On to B1, for which the binding result is listed as “binds”.
